Biological target: Clostridium difficile toxin B (Clostridium difficile) (UniProt P18177)
Experiment: cell-based or functional assay

Clostridium difficile toxin B (Clostridium difficile), sequence (P18177 2-2366 limits assumed): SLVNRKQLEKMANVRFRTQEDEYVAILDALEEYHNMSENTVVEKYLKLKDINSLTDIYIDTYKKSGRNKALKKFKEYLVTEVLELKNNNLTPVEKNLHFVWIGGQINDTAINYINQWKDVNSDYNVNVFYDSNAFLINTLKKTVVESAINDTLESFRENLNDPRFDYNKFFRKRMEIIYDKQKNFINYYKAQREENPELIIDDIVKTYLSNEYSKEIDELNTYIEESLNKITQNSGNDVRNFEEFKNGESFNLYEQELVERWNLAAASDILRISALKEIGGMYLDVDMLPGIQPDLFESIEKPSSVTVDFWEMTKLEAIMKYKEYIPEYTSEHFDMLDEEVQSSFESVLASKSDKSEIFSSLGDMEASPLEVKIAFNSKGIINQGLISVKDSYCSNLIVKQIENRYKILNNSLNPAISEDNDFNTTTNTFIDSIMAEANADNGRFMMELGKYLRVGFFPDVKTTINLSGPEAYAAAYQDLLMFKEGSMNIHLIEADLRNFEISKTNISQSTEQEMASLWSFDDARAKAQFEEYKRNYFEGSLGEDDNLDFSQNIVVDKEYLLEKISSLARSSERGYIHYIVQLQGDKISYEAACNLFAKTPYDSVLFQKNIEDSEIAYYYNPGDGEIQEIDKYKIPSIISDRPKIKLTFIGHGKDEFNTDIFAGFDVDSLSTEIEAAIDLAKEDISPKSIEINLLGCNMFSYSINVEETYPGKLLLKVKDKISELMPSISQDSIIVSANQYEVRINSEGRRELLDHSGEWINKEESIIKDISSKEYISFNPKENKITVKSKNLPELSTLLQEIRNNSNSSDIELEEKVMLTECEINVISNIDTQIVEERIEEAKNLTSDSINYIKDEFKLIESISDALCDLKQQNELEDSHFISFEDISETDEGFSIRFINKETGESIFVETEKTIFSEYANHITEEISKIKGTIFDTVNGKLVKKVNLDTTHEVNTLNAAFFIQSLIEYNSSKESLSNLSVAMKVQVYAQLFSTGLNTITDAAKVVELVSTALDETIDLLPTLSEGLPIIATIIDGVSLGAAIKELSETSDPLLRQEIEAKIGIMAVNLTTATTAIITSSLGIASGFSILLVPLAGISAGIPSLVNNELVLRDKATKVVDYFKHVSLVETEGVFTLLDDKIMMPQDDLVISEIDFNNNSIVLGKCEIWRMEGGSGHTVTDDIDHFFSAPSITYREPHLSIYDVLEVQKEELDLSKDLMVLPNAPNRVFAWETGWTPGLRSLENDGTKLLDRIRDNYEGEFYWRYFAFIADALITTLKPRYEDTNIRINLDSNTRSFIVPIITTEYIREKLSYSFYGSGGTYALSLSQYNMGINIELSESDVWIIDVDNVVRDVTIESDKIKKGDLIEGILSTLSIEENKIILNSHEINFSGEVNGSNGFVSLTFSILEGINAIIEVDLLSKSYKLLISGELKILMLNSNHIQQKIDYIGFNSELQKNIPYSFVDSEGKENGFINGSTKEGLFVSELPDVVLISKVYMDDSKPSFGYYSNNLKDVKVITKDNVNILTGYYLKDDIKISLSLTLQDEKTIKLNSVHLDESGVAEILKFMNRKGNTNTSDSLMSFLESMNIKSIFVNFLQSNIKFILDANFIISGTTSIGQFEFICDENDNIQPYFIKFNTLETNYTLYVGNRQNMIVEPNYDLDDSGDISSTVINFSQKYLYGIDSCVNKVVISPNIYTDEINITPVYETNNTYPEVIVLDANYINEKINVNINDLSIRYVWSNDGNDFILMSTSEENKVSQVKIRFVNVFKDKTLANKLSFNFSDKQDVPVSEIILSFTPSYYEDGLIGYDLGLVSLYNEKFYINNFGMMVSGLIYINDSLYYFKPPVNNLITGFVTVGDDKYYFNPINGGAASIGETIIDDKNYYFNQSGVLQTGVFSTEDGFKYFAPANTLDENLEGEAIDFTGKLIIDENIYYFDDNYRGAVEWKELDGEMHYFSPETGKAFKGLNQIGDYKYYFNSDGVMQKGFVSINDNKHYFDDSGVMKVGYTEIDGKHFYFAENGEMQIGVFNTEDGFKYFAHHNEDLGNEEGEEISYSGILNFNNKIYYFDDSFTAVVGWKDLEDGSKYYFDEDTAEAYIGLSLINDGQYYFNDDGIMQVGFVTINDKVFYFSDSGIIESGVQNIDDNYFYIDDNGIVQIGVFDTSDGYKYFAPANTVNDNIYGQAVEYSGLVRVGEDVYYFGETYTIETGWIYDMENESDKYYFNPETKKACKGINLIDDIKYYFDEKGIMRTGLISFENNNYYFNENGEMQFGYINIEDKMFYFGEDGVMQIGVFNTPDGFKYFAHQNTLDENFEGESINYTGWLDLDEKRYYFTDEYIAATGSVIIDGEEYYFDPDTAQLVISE

Substance: MDX1388 (antibody)
- neutralizing activity (EC50 value), rounding of toxin B-exposed IMR-90 cells: < 0.1 µg/mL

Reference: patent publication US20150259402A1
